In patent EP4631972A1, “SITE-SPECIFIC COUPLED PEGYLATED INTERLEUKIN-2 MUTANT WITH RECEPTOR AFFINITY PREFERENCE AND USE THEREOF” (priority 2022, dated 2024):
Read-outs that look alike come from different tables or passages of the source.

What was measured:
IL-2αβγ triple receptor = molecular target: T1, IL-2αβγ triple receptor (Homo sapiens, UniProt P01589+P14784+P31785); test: STAT5 reporter gene assay, activation of IL-2αβγ triple receptor in 293EC18/αβγ/JAK3/STAT5 cells; assay type: cell-based; conditions: Example 3, Table 2 and Figure 3
T1 construct: Uniprot P01589 1Met-551Ile constructed into plasmid pcDNA3.1/zeo; Uniprot P14784 1Met-551Val constructed into plasmid pcDNA3.1(+); Uniprot P31785 1Met-551Thr was constructed into plasmid pcDNA3.1/zeo; expressed in transfected cells; host or cells: 293EC18 cells, transient co-transfection with pCMV/JAK3 and PGL4.52/STAT5RE
T1 sequence (P01589 22-272): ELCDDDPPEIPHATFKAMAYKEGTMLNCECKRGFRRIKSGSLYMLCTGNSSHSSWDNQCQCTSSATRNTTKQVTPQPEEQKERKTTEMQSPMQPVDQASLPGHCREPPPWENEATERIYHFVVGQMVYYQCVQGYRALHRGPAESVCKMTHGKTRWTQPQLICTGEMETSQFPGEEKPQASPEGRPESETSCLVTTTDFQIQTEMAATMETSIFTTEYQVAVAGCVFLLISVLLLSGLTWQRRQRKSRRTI
T1 sequence (P14784 27-551): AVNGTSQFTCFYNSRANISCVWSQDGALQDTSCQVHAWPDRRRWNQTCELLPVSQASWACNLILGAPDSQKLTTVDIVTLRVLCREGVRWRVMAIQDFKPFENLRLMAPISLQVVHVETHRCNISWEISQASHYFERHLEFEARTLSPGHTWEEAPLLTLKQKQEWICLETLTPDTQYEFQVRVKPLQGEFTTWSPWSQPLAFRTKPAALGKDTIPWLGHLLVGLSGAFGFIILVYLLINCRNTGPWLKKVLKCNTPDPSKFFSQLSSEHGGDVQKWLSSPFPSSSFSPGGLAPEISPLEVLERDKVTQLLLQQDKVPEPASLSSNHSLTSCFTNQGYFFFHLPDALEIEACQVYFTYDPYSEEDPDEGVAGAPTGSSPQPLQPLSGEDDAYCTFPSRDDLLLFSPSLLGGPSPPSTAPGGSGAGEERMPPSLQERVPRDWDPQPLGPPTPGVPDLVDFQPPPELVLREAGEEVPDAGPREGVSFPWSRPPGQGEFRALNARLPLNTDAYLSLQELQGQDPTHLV
T1 sequence (P31785 23-369): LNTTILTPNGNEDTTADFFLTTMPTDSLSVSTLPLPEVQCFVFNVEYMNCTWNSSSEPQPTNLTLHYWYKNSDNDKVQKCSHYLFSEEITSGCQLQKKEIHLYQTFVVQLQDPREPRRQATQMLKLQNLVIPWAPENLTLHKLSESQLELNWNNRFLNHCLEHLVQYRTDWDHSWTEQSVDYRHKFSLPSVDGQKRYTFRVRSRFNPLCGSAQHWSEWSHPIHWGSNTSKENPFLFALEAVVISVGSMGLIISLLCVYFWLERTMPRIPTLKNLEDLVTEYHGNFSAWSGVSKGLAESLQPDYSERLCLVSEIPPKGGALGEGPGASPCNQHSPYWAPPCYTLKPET
Experimental: Since the binding of IL-2 to the β and γ subunits of its receptor induces STAT5 phosphorylation, which subsequently leads to dimerization and translocation into the nucleus to promote target gene transcription, this example evaluates the ability of the mutant IL-2 polypeptides to induce signaling through the IL-2 receptor by measuring STAT5 phosphorylation.
Adherent 293EC18 cells were cultured to about 90% confluence using conventional methods. After trypsin digestion, the cells were resuspended in cell culture medium to 4×10^5 cells/ml and 50 µl/well were added to two 96-well cell culture plates. After incubation at 37°C for 48 h, the supernatant was aspirated and fresh culture medium was added. […]
Each IL2 mutant was diluted 4-fold in a gradient manner using PBS buffer, with a total of 11 dilutions and a starting concentration of 65.2 nM. […] Bio-Lite Luciferase Assay System reagents that have been mixed and equilibrated to room temperature were added to the cell culture plates to be tested at 100 µl/well, placed on a microplate shaker at 450 rpm to mix for 2 minutes, then allowed to stand at room temperature for 3 minutes, and the chemiluminescence value was detected with an enzyme plate reader.
The logarithm of the final concentration of each IL-2 mutant sample was used as the X-axis, and the chemiluminescence detection results were used as the Y-axis for plotting. Data were analyzed using the four-parameter logistic regression model in GraphPad Prism 9. Table 2 EC50 values for the activation of the IL-2αβγ triple receptor by PEG-IL-2 mutants as determined by a reporter gene assay.
According to the method of Example 3, each polyethylene glycol-modified mutant obtained in this example was assessed for the binding preference to the IL2 receptors by a reporter assay. Table 4 EC50 values for the activation of the IL-2αβγ triple receptor by PEG-IL-2 mutants as determined by a reporter gene assay. […]

[1] = Pharmacokinetic study in mice, single administration, plasma concentration by ELISA; conditions: 1 mg/kg s.c. single administration
Experimental: Balb/c mice were purchased, with 4 mice in each group. Each IL-2 mutant to be tested was administered subcutaneously once at a dose of 1 mg/kg. Blood was collected from the orbit at different time points after administration, and the plasma was separated and the plasma drug concentration was detected by ELISA. The main pharmacokinetic parameters were calculated, and C-T curve was plotted.

Treg cells = test: P-STAT5 activation in Treg cells of human PBMCs (flow cytometry); assay type: cell-based; conditions: P-STAT5 MFI in CD3+/CD4+/CD25+ cells of human PBMCs, 30 min stimulation
Experimental: In the example, the activation effect of each mutant prepared in Example 6 on P-STAT5 in different cell subsets (Tregs, CD8+T cells, NK cells) from human PBMCs (Miaoshun Biotechnology) was detected.
Human PBMC cells were thawed and resuspended to 1.5×10^6 cells/ml in RPMI1640 medium containing 10% FBS. 100 µl was added to each well of a V-bottom 96-well culture plate. Each IL-2 mutant prepared in Example 6 was diluted 10-fold in series: 1000 nM was used as the working concentration for the first well, and then 100 µl/well of each serial dilution was added to each cultured cell, stimulated at 37°C for 30 min, and the reaction was terminated on ice. The cells were treated with a commercial fixative and permeabilization agent (BD biosciences 558049 & 558050), and stained with antibodies against CD3, CD4, CD25, and CD8 according to conventional methods. P-STAT5 antibody staining was also performed (Table 7) to detect the mean fluorescence intensity (MFI) of P-STAT5 in CD3+/CD4+/CD25+ (Treg cells) and CD8+/CD3+ cells ([…]) by flow cytometry.

IL-2Rαβγ triple receptor [2] = molecular target: T2, IL-2Rαβγ triple receptor (UniProt P01589 22-272; P14784 27-551; P31785 23-369); test: cell-based or functional assay
T2 sequence (looked up) 1: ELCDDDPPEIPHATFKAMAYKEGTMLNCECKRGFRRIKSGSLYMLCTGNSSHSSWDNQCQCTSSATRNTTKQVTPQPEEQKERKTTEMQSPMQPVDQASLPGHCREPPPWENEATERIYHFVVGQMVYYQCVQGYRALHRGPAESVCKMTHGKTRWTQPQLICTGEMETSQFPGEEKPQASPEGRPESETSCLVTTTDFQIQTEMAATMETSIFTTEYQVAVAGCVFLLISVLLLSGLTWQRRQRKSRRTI
T2 sequence (looked up) 2: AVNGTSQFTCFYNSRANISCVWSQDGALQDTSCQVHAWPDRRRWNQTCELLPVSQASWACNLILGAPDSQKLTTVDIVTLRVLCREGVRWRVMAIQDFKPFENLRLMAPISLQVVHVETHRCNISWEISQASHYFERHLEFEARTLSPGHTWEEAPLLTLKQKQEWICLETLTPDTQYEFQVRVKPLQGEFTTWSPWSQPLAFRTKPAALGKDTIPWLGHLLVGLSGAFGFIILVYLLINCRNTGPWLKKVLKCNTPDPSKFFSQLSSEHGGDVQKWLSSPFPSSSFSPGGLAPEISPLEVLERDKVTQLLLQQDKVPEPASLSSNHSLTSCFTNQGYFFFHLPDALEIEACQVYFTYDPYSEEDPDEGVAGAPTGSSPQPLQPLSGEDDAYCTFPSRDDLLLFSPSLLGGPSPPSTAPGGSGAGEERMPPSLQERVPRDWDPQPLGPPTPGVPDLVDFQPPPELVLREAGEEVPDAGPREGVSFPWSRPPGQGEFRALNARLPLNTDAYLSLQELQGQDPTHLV
T2 sequence (looked up) 3: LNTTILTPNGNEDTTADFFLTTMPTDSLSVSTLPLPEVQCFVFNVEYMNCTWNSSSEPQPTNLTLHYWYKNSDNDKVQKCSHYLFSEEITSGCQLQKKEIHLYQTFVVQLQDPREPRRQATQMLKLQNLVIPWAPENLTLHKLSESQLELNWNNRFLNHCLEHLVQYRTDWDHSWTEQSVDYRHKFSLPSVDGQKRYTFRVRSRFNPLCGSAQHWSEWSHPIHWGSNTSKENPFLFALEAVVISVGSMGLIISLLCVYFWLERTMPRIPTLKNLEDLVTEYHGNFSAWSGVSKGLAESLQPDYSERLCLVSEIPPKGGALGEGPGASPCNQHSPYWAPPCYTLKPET

[3] = Effects on body weight and physiological characteristics of mice; conditions: 1 mg/kg s.c. once every three days, three times
Experimental: SPF grade Balb/c mice were purchased, with 3 mice in each group. Administration was started on the day of grouping. The test substance or PBS (negative control group) was administered subcutaneously at a dose of 1 mg/kg, once every three days, for a total of three times. The mice were weighed before each administration and three days after the third administration .

IL-2Rαβγ triple receptor [4] = molecular target: T2, IL-2Rαβγ triple receptor; test: cell-based or functional assay; remark: listed apart in the source

With “80k-1PEG-IL2-D84C: IL-2 (C125S) mutant D84C with one 80k PEG-maleimide conjugated to cysteine 84” the “activation of the IL-2Rαβγ triple receptor compared with the control IL2-N88R” value (IL-2αβγ triple receptor) was “even stronger activation”.

In the case of “40K-1PEG-IL2-N88R-N77C: IL2-N88R-N77C with 40 kDa PEG conjugated to the cysteine at position 77”, the AUC inf [1] is reported as 307.71336 ± 53.89144 µg·h/mL, the AUClast [1] is reported as 306.70767 ± 53.98797 µg·h/mL and the CL [1] is reported as 3.32±0.5. For the same molecule, the Cmax [1] was 6581.76 ± 1168.04 ng/mL, the MRT [1] was 31.57 ± 1.16 h and the T1/2 [1] was 11.33 ± 0.97 h. It also gave a Tmax [1] of 8 to 24 h and an EC50 (Treg cells) of 38000 pM.

“rh IL-2 (from UniProt P60568 21-153) (ligand)” gave an Activation of IL-2αβγ receptor EC50 (STAT5 luciferase reporter gene assay) (IL-2Rαβγ triple receptor [2]) of 8.48 pM, an Activation of IL-2αβγ triple receptor EC50 (STAT5 luciferase reporter gene assay) (IL-2Rαβγ triple receptor [2]) of 4.11 pM and an EC50 for activation of the IL-2αβγ triple receptor (STAT5 luciferase reporter gene assay) (IL-2Rαβγ triple receptor [2]) of 5.43 pM.

For “80K-1PEG-IL2-N88R-D109C: IL-2 mutant N88R, D109C, conjugation site 109, PEG molecular weight 80kD”, the “toxic side effects on mice” value [3] was “relatively obvious toxic side effects”, the “visual observation of the mice” value [3] was “listless, had poor motility” and the “body weight compared with negative control” value ([3]; three days after the third dose) was “significantly lower than that of the negative control”.

B1: 20K-1PEG-IL2-N88R-D109C (ligand)
chain: APTSSSTKKTQLQLEHLLLDLQMILNGINNYKNPKLTRMLTFKFYMPKKATELKHLQCLEEELKPLEEVLNLAQSKNFHLRPRDLISXINVIVLELKGSETTFMCEYAXETATIVEFLNRWITFSQSIISTLT
modifications: not fully specified; one 20 kD PEG-maleimide conjugated to Cys 109
With B1 the “EC50 for activation of the IL-2αβγ triple receptor (STAT5 luciferase reporter gene assay)” value (IL-2Rαβγ triple receptor [4]) was 78.6 pM.
